Experimental data taken from patent publication US8114638B2, “Arabinitol dehydrogenase from Neurospora crassa” (The Board of Trustees of the University of Illinois, priority 2007, dated 2012).

System: OC[C@H](O)C(O)[C@@H](O)CO
Experiment: purified protein, by the assay type
Conditions: other: with indicated substrate, 25° C., 50 mM Tris pH 8.0, saturated NAD+ (2 mM)
Description: Initial rates were determined using a Varian Cary 100 Bio UV-visible spectrophotometer (Varian) at 25° C. in 50 mM Tris (pH 8.0). […] The kinetic data were analyzed with a modified version of Cleland's program (Cleland, W. W. (1979) Statistical analysis of enzyme kinetic data, Methods Enzymol 63, 103-138.).
Kinetics. The data were used to calculate the kinetic constants for various substrates by fitting the Michaelis-Menten equation using Origin 5.0. […] The data represent averages of assays performed in duplicate or triplicate on two separate occasions.

Substance: N. crassa LAD (Neurospora crassa OR74A)
- Km: 18 ± 2 mM
- kcat: 20.2 ± 0.5 s⁻¹
- kcat/Km: 1120 M⁻¹ s⁻¹
